Reference: paper PMC4341239, “High yield purification of full-length functional hERG K^+ channels produced in Saccharomyces cerevisiae” (Microbial Cell Factories, 2015)

Target: the molecule itself
Test: SEC; fluorescence size exclusion chromatography (FSEC) on Superose 6 10/300 GL; crude membranes solubilized in FC-12 with cholesteryl-hemisuccinate, with 1 uM Astemizole; FSEC buffer 20 mM TRIS-HCl, 0.15 M NaCl, 0.03% DDM; mass by MW standards, amount of detergent in the complex unknown

B1: hERG-TEV-GFP-His 8 fusion protein (full-length hERG alpha-subunit, Kv11.1) (natural protein, human, UniProt Q12809 1-1159, looked up)
chain: MPVRRGHVAPQNTFLDTIIRKFEGQSRKFIIANARVENCAVIYCNDGFCELCGYSRAEVMQRPCTCDFLHGPRTQRRAAAQIAQALLGAEERKVEIAFYRKDGSCFLCLVDVVPVKNEDGAVIMFILNFEVVMEKDMVGSPAHDTNHRGPPTSWLAPGRAKTFRLKLPALLALTARESSVRSGGAGGAGAPGAVVVDVDLTPAAPSSESLALDEVTAMDNHVAGLGPAEERRALVGPGSPPRSAPGQLPSPRAHSLNPDASGSSCSLARTRSRESCASVRRASSADDIEAMRAGVLPPPPRHASTGAMHPLRSGLLNSTSDSDLVRYRTISKIPQITLNFVDLKGDPFLASPTSDREIIAPKIKERTHNVTEKVTQVLSLGADVLPEYKLQAPRIHRWTILHYSPFKAVWDWLILLLVIYTAVFTPYSAAFLLKETEEGPPATECGYACQPLAVVDLIVDIMFIVDILINFRTTYVNANEEVVSHPGRIAVHYFKGWFLIDMVAAIPFDLLIFGSGSEELIGLLKTARLLRLVRVARKLDRYSEYGAAVLFLLMCTFALIAHWLACIWYAIGNMEQPHMDSRIGWLHNLGDQIGKPYNSSGLGGPSIKDKYVTALYFTFSSLTSVGFGNVSPNTNSEKIFSICVMLIGSLMYASIFGNVSAIIQRLYSGTARYHTQMLRVREFIRFHQIPNPLRQRLEEYFQHAWSYTNGIDMNAVLKGFPECLQADICLHLNRSLLQHCKPFRGATKGCLRALAMKFKTTHAPPGDTLVHAGDLLTALYFISRGSIEILRGDVVVAILGKNDIFGEPLNLYARPGKSNGDVRALTYCDLHKIHRDDLLEVLDMYPEFSDHFWSSLEITFNLRDTNMIPGSPGSTELEGGFSRQRKRKLSFRRRTDKDTEQPGEVSALGPGRAGAGPSSRGRPGGPWGESPSSGPSSPESSEDEGPGRSSSPLRLVPFSSPRPPGEPPGGEPLMEDCEKSSDTCNPLSGAFSGVSNIFSFWGDSRGRQYQELPRCPAPTPSLLNIPLSSPGRRPRGDVESRLDALQRQLNRLETRLSADMATVLQLLQRQMTLVPPAYSAVTTPGPGPTSTSPLLPVSPLPTLTLDSLSQVSQFMACEELPPGAPELPQEGPTRRLSLPGQLGALTSQPLHRHGSDPGS
modifications: N-glycosylated in S. cerevisiae
notes: the fusion is 156 kDa; also called hERG-GFP-His 8; hERG-GFP; source: S. cerevisiae strain PAP1500, induced at 15°C; crude membranes solubilized in FC-12 with cholesteryl-hemisuccinate; not shown: GFP (yEGFP, after a TEV cleavage site), C-terminal, kept; His8, C-terminal, kept
stoichiometry N: 4
